Results taken from publication PMC2064389 (The Journal of Cell Biology, 2006).
Like-named read-outs stand apart in the source and are kept apart here. Each block holds one molecule with its values, some of them ahead of it.

Legend:
Experiment in all cases: liposome flotation
[1] = target: mArf1p (wild type or Q71L not told) (yeast) (UniProt P11076)
Chs5–Chs6[all] complex [2] = target: T1, Chs5–Chs6[all] complex (yeast, UniProt Q12114 1-671; P40955 1-746; Q05029 1-724; Q08754 1-746; P36122 1-765)
[3] = target: Complex of Chs5p with two paralogues (Chs6p and Bch1p) (yeast, UniProt Q12114 1-671; P40955 1-746; Q05029 1-724)
Complex of Chs5p with two paralogues (Chs6p and Bch1p), sequence (Q12114 whole entry, chain 1 of 3): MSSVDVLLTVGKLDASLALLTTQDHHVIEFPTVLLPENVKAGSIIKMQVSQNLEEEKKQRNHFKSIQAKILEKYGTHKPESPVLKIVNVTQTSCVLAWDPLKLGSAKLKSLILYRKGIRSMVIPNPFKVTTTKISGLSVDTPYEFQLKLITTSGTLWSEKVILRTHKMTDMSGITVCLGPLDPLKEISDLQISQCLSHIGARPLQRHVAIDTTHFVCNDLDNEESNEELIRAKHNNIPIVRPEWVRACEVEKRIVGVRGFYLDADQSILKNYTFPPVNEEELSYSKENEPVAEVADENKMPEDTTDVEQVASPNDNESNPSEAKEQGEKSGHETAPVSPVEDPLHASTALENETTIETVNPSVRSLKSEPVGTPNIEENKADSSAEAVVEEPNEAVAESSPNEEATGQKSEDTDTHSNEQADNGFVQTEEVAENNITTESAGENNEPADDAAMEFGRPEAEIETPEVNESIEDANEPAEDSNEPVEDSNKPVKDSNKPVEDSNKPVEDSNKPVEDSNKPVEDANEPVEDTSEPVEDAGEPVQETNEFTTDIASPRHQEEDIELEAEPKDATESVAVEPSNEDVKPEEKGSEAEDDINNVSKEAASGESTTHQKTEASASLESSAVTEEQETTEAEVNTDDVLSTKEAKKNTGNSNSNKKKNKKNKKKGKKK
Complex of Chs5p with two paralogues (Chs6p and Bch1p), sequence (P40955 whole entry, chain 2 of 3): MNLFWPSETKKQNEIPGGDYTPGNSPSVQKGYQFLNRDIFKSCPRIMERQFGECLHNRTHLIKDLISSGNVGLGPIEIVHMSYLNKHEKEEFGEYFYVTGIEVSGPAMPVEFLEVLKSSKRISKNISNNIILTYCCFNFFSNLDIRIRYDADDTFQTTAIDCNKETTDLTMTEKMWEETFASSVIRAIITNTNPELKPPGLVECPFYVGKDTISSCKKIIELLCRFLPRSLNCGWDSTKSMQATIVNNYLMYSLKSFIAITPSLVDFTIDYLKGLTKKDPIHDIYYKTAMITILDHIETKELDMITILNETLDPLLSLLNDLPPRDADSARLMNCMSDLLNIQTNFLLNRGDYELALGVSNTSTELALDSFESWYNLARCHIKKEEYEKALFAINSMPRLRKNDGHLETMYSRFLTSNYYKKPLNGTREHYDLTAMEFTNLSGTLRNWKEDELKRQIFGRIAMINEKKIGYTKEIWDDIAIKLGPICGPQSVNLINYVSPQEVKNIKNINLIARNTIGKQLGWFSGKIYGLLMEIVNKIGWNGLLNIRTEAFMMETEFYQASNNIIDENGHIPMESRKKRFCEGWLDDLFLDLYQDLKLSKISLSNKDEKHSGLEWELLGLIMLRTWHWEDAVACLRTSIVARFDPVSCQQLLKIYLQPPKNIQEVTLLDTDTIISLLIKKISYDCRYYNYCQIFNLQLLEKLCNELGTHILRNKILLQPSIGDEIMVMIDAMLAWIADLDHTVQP
Complex of Chs5p with two paralogues (Chs6p and Bch1p), sequence (Q05029 whole entry, chain 3 of 3): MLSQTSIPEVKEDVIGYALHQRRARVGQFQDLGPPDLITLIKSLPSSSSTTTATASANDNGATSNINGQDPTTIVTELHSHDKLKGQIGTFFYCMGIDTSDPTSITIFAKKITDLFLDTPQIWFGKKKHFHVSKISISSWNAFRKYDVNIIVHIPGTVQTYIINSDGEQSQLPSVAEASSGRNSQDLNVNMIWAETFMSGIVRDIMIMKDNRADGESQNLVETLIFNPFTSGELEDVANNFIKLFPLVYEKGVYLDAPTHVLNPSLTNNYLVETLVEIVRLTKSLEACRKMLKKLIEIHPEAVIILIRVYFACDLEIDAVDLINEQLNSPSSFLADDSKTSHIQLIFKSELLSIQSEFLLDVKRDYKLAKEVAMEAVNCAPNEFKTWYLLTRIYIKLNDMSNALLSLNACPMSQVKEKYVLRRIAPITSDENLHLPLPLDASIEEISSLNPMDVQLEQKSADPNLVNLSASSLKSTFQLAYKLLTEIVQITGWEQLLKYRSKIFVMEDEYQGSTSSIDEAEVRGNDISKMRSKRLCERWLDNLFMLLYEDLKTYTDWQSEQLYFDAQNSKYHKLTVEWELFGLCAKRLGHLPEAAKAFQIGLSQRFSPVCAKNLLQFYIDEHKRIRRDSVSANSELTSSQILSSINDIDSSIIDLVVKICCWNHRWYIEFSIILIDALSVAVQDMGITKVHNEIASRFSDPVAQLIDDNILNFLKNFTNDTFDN

Chs5–Chs6[all] complex [4] = target: T1, Chs5–Chs6[all] complex; remark: listed apart in the source

concentration of Chs5–Chs6[all] at which binding was saturated (∼1 μM mArf1p) [1]: 0.5 µM | stoichiometry N (Arf1 per Chs5–Chs6[all] complex (molar)) [1]: 7.5
Molecule: Chs5–Chs6[all] complex (from UniProt Q12114 1-671; P40955 1-746; Q05029 1-724; Q08754 1-746; P36122 1-765)

binding result (Chs5–Chs6[all] complex [2]): binds
B1: Recombinant myristoylated Arf1p (Q71L; GTPase deficient) (natural protein, yeast, UniProt P11076 1-181, looked up)
chain: MGLFASKLFSNLFGNKEMRILMVGLDGAGKTTVLYKLKLGEVITTIPTIGFNVETVQYKNISFTVWDVGGLDRIRSLWRHYYRNTEGVIFVVDSNDRSRIGEAREVMQRMLNEDELRNAAWLVFANKQDLPEAMSAAEITEKLGLHSIRNRPWFIQATCATSGEGLYEGLEWLSNSLKNST
modifications: N-myristoylated (>75% of the protein)

binding result [3]: binds | binding result (Chs5–Chs6[all] complex [4]): binds
B2: Myristoylated wild-type Arf1p (natural protein, yeast, UniProt P11076 1-181, looked up)
chain: MGLFASKLFSNLFGNKEMRILMVGLDGAGKTTVLYKLKLGEVITTIPTIGFNVETVQYKNISFTVWDVGGQDRIRSLWRHYYRNTEGVIFVVDSNDRSRIGEAREVMQRMLNEDELRNAAWLVFANKQDLPEAMSAAEITEKLGLHSIRNRPWFIQATCATSGEGLYEGLEWLSNSLKNST
modifications: N-myristoylated (>75% of the protein)
